According to patent publication US7960513B2, “Antibody against a human ADAM protease” (Monash University, priority 2004, dated 2011):

Biological target: T1, EphA3/ephrin-A5 complex (Homo sapiens, UniProt P29320+P52803)
T1 construct: Fc fusion proteins of the ephrin-A5 and EphA3 extracellular domains fused to the hinge and Fc region of human IgG1 were produced as described; expressed in transfected cells; host or cells: EphA3/HEK293 cells; ephrin-A5-Fc added as soluble pre-clustered protein
T1 sequence (P29320 21-983): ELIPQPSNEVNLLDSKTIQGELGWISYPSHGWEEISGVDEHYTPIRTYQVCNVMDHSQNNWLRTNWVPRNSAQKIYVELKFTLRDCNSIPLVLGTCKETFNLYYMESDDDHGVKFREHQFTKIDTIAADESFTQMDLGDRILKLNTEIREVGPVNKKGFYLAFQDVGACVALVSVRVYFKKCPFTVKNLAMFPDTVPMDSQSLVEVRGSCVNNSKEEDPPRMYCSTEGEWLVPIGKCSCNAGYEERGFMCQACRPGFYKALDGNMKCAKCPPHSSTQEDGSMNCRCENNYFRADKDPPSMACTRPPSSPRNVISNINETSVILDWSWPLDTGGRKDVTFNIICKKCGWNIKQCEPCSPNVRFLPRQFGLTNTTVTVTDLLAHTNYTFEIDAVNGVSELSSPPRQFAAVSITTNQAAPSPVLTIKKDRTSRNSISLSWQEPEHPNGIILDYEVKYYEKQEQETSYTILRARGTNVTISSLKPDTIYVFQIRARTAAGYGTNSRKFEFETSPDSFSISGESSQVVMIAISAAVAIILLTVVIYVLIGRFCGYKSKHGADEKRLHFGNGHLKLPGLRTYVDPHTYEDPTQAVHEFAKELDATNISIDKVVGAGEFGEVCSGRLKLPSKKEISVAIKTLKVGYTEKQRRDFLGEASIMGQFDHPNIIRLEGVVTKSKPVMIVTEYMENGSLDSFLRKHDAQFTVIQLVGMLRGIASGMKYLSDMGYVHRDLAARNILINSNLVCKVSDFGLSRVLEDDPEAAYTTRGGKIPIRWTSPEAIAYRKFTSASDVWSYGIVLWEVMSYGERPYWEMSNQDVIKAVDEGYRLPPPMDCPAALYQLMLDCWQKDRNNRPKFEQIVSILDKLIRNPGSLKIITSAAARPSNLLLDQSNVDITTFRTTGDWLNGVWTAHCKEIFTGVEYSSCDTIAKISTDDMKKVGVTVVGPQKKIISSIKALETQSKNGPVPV
T1 sequence (P52803 21-203 limits assumed): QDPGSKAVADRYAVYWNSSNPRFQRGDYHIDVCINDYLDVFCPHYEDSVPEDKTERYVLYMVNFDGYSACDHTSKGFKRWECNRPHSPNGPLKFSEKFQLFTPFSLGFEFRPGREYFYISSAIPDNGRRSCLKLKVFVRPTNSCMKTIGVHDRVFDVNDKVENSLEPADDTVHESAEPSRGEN
Assay: Co-immunoprecipitation from transfected cells treated with pre-clustered ephrin-A5-Fc
Type: cell-based
Conditions: EphA3/293 cells, pre-clustered ephrin-A5-Fc 10 min
Protocol: FIG. 4. Mutation of acidic residues in the ADAM10 Cys-rich domain affects binding to EphA3/ephrin-A5 and cleavage of ephrin-A5. • A. In vitro binding of mutant ADAM10D+C to EphA3/ephrin-A5. ADAM10D+C[EEE-A] containing Alanine substitutions of Glu573, Glu578, Glu579 (lanes 1-4) or ADAM10D+C[RDD-A] (Ala substitutions of Arg525, Asp526, Asp527, lanes 5-8) were incubated alone (lanes 1, 5), or together with EphA3-Fc (lanes 2, 6), ephrin-A5-Fc (lanes 3, 7), or EphA3-Fc and ephrin-A5 (lanes 4, 8). Complexed proteins were extracted with Protein-A-Sepharose beads and analysed as in FIG. 2. • B. Binding of wild-type and mutant ADAM10ΔMP to EphA3 in cells. EphA3/293 cells were transfected with HA-ADAM10ΔMP or HA-ADAM10ΔMP [EEE-A]. Parental and transfected cells were treated for 10 min with or without pre-clustered ephrin-A5-Fc and lysed. Anti-HA and anti-EphA3 immunoprecipitates, and total cell lysates were analysed by Western blotting with indicated antibodies. • C. Ephrin-A5-Fc cleavage in cells expressing wt and 3A mutant ADAM10. EphA3/293 cells were transfected with full length, wild-type (wt) ADAM10, dominant-negative ADAM10ΔMP, or ADAM10 bearing alanine (3A) or 3 lysine (3K) substitutions of Glu573, 578, 579. Following exposure to clustered (+) or non-clustered ? ephrin-A5 Fc, cleaved ephrin was recovered and analysed by Western Blot as described in FIG. 1c. […]

B1: ADAM10Δpro: cell-surface ADAM10Δpro incorporating the EEE-A amino acid substitutions (protein)
chain: SGQPICGNGMVEQGEECDCGYSDQCKDDCCFDANQPEGKKCKLKPGKQCSPSQGPCCTAQCAFKSKSEKCRDDSDCAKEGICNGFTALCPASDPKPNFTDCNRHTQVCINGQCAGSICAKYDLAACTCASSDGKDDKELCHVCCMKKMAPSTCASTGSLQWSKQFSGRTITLQPGSPCNDFRGYCDVFMRCRLVDADGPLARLKKAIFSPQLYENIAEWIVAHWWAVLLMGIALIMLMAGFIKICSVHTPSSNPKLPPPKPLPGTLKRRRPPQPIQQPPRQRPRESYQMGHMRR
modifications: left off: small tags and cut ends
notes: cell-surface ADAM10Δpro incorporating the EEE-A amino acid substitutions
  interaction with the EphA3/ephrin-A5 complex in cells: significantly inhibited
